Reference: PMC8152684

Substrate: NC(=O)C[C@H](N)C(=O)O
Test: purified protein
Conditions: free enzyme in solution, 50 mM Tris-HCl pH 8.6, 37 °C

B1: L-asparaginase (Asp) (Escherichia coli K-12) (protein)
chain: LPNITILATGGTIAGGGDSATKSNYTVGKVGVENLVNAVPQLKDIANVKGEQVVNIGSQDMNDNVWLTLAKKINTDCDKTDGFVITHGTDTMEETAYFLDLTVKCDKPVVMVGAMRPSTSMSADGPFNLYNAVVTAADKASANRGVLVVMNDTVLDGRDVTKTNTTDVATFKSVNYGPLGYIHNGKIDYQRTPARKHTSDTPFDVSKLNELPKVGIVYNYANASDLPAKALVDAGYDGIVSAGVGNGNLYKSVFDTLATAAKTGTAVVRSSRVPTGATTQDAEVDDAKYGFVASGTLNPQKARVLLQLALTQTKDPQQIQQIFNQY
Km: 0.14 mM
